The values below come from patent publication US20100075326A1.

Read-outs that look alike come from different tables or passages of the source.

For assay [1], the target named is T1, base coil K3 (three heptad repeats), YS2H bait fused to Aga2 with C-terminal FLAG tag (yeast).
Assay [2] addresses NeGFP (partner of the row 'E3' in Figure 2d, base coil deleted, cytosolic).
For assay [3], the target named is T1, base coil K3 (three heptad repeats), …. The source holds these as a separate data set.
Assay [4] has the same target. Nature of the assay: predicted from YS2H (flow cytometry of Myc and FLAG tags, Langmuir equation).
Assay [5] shares this target. Nature of the assay: YS2H, Kn-Flag : En-Myc: bait on the yeast surface as Aga2 fusion, secreted prey captured by it; flow cytometry with anti-Myc antibody, MFI of the whole induced population; Flag (bait) MFI of this clone 70; K3-only control Myc MFI 8.
Assay [6] has the same target. The source holds these as a separate data set.
Assay [7] has as its target T2, base coil K4 (four heptad repeats), YS2H bait fused to Aga2 with C-terminal FLAG tag (yeast).
In assay [8] the target is T3, base coil K5 (five heptad repeats), YS2H bait fused to Aga2 with C-terminal FLAG tag (yeast).
Assay [9] addresses T2, base coil K4 (four heptad repeats), …. Kind of assay: predicted from YS2H (flow cytometry of Myc and FLAG tags, Langmuir equation).
In assay [10] the target is T3, base coil K5 (five heptad repeats), …. The assay is described as above.

Molecule VSALEKEVSALEKEVSALEKEEQKLISEEDL (modifications not checked) [acid coil E3 (three heptad repeats), secreted YS2H prey with C-terminal Myc tag] displayed an MFI of complemented split eGFP, secretory pathway (K3-NeGFP-Flag : E3-CeGFP-Myc); Flag MFI 67 in [1] of 20. Besides, in [2], the MFI of complemented split eGFP in the cytosol, control row 'E3' (NeGFP with the base coil deleted : E3-CeGFP) was determined as 7. This molecule also returned an MFI of complemented split eGFP in the cytosol (K3-NeGFP : E3-CeGFP, no signal sequences) in assay [3] of 216. Besides, the equilibrium dissociation constant (Kd) in assay [4] is 1270 nM. This molecule also showed an MFI (anti-Myc) in [5] of 8.

Consider VSALEKEVSALEKEVSALEKEVSALEKEVSALEKEEQKLISEEDL (modifications not checked) [acid coil E5 (five heptad repeats), secreted YS2H prey with C-terminal Myc tag], for which the figures for the MFI (anti-Myc) in [6], in assay [7] and in assay [8] were 10, 653 and 1200, respectively. Further, the Kd was 1290 nM in assay [4], 18.3 nM in [9] and 0.49 nM in [10].

Regarding VSALEKEVSALEKEVSALEKEVSALEKEEQKLISEEDL (modifications not checked) [acid coil E4 (four heptad repeats), secreted YS2H prey with C-terminal Myc tag], the MFI (anti-Myc) in [7] amounted to 68. In addition, in [9], the equilibrium dissociation constant (Kd) is 151 nM.
